Data as given in the DeepSol protein solubility set.

Assay: soluble on expression in E. coli; label from the status in PepcDB or PDB records

Sequence	soluble on expression in E. coli
SSQKSLFREDWFQNGSFVSLTLYIKDVDRDESNVTFTQQTVTVNLFSARDKSIYEQTWELSHPVVAEQSLVTYFPQKVELKMKKKEEGLLWKQLTSGATLKSSDNTQSSYSSRETASLQSGRFPKQFAVEEDDDEEQDQSKDLLAFFRDIYEKSDEDTRRAMVKSFVESQGKVLSTDWKKVSSQNSRYDNE	soluble
MHGKRIALCASRKLDEMTTLIEKQGGTAIIRPAQGTVFSKGSELGEEMRTVIAMRPDWIVFTTGIGFEALLEAADREGMAAQWHRTIKEANVAARGYKTVTALKQIGVTPVAVSEDGTTKGLIAALYGHDFADKNVVVQLYGDTAPALKQFFLEQGALYTELLPYRHIAPDEETLATLYKEIVGREVDAVCFTSAMQVRFFFSFAREKKEIAPLLDAFRTDVVACAVGKVTKEALEEEGVDRVIAPEHERMGAMIVTLARYFGA	not soluble
MGSDKIHHHHHHMASQRGDTKLQLLRDTSLSHDGLNHTILTLNQLLHQRAPFYGEHLSATTSPTGLSFDEWSCADTYQKLIARFAIAHPSAENQTETKTENETETDKTAATSRTPAFASKSALVSKNAVPSRKDTRKALHSLWGQWYFGLLVPPMMEWIFNAPKTDVETLHWQPQSVFMQVHPSGRVAKFEFKIAKYQPITALTFKKHHGIEPLSRTNTKPSIKIDTEVHSPLSPYKPSVDKELVLQGFILNLLQSSVDRLLTLSPVPAKLYWSHLGYLIHWYLGELGLSQQQNQQLKQALFRRTTFLDGSTNPLYNSINLLIEPEQDSATPYTVARIVTSTASRSKPSPKIHCIRRTCCLRYQLANTGQCHDCPLLSRAKVNVNATKQT	not soluble
MTLDECIRLAWKQNPSVRNSVIDIKEARADYMAAVGAFLPRAAVNAETGKRFGRSIDPDTNGYTNETFEEGTVGLDMTLSLFEGFSRIHQVRFRKMNKERSEWALKNRQNELAYQVTDAYYKLILERKLLNLALEQSRLSERYLKQTEAFVELGLKSASDLQEVKARREGDIYRYKSRENTCRLALLHLEQLMNFQPGDTLVIQDTIVEANQLPLLSVPSTETLYAQSLEILPVMRMIDLKRKAARKEYAMAGGTFSPSVYARFTVGSNFYNTVFSARQLRDNIGKYVGIGISFPLLSGLERLTHQRKQKLNLYRLKNEEELEKQQLYTDIEQTLLSLHAGFSEHQQALQQLEAEALVLKESERKWEEGLISVFQLMEARNRFISAKAELVRVRLQVEMMRKLEKYYREGTFL	not soluble
MRGSHHHHHHGSIEGRSAVTCDDYYYGFGCNKFCRPRDDFFGHYACDQNGNKTCMEGWMGPECNRAICRQGCSPKHGSCKLPGDCRCQYGWQGLYCDKCIPHPGCVHGICNEPWQCLCETNWGGQLCDKDLNYCGTHQPCLNGGTCSNTGPDKYQCSCPEGYSGPNCEI	soluble
MGKREKKPNRRRHKGEYSNDAEDFYDQHPPAVASVDEEDEENSDEEEEENDGNESSDLPSKFLLYQQSVQSPKGDISYLQKFFLIFYIDCWNSAEWLKTDTRRTAIGLDFDLEALEWCMDNNISKLGSDVYSRMSLFHGNVLTPLEAKQVKSKSHELIQNISLDDGDDNEDLADPSVVESLEKDGPDSLPKRDIVCAFNFSCCCLHKRSELVSYFKNARDALSKKGGIFVMDLYGGASAEGQLKLQRKFPNFTYTWEQAEFDILSRKTRISLHYHLQKQNRKIRHAFSYSWRLWSLPEIKDCMEEAGFSSVHFWLREMPDASEMRRTDGFGAGRDIKYEQVKSFQQCDSWNAYIVAVSL	not soluble
MSLIQDNEISSSTKTRIKALKFFSRKMLSELNFGGYRSIFKGLGLEFHEFRPYEDSDDARFIDWNVSSKADSIFSKVFKEDRGMNLHLLVDNSLSMSLGDKVNKKDVQDLLVSIFAHMAFFNNDKIGVTFFSSGTDKFIPSSKGHSHLGLILSETINRNLKPGSSLAYIFKNTAEYYKKRSLVIIISDFKANAYFKSLNVLSKRHNVIAIRISDFFDENFPKIGTLICEDIETGENFLVSGFSKSTLSGYKNYWTLDKIKWKKECIKKNISFIEIDTKEDVFKKLKILLKKGQEGHHHHHH	not soluble
MAIRSSVLALCVATLLTGCQNLNTNTLMQSGAQAFQAATLSDAQVKALSDQSCEQMDKEAKIAPADSKYTQRLNKIADALGHDINGTPANYKVYLEKDVNAWAMANGCIRVYSGLMDMMNDNEVEGVLGHEMGHVALGHTRKAMQVAYAATAARTAIASAGGVAASLSQSQLADLGEKLVNSQFSQSQESQADDYSFDLLKKRGINREGLASSFEKLAKLDASHESSMFDSHPSSEGRAKHIRERITAEKLEHHHHHH	soluble
MGSDKIHHHHHHGEGVVVATGKAQAAASTVAGNAYGRLQFSPCTLSSGSAAGNIEAQCAQLQVPENPAAPNGRKLALKIAWLESDAGASHAPDPVFFIAGGPGQSATQVAAIVDMGLREVRKHRDIFLVDQRGTGGSHPLECRDAGGTPLVLENDSAATAEQLSAYAARCAAGLRNDADPRYFTTSEAIGDLDAVREALGAQQINLIGGSYGTRVAQQYAARYPQHTRTVVLDGVAPNDLVIGGEFARTFEDAIALQTTQCKAQPACAKRFPVDTRTQLRQVVERLRQAPAPVDYRDPRTGELHHQEVNADTVAGLAFGFSYAPETASLLPLVLDEAAAGRYASLMALAQMSGSDMADQMNRPMQWSVLCSEDAGRYRAPAAQDDTLLGAQVAEMFFAACKTWPSKPTPAAAFAPFRSTLPVLLLSGQLDPVTPPRYAARVLQGLPNGRHLIAPGQSHGVFRLGCMPKVLGQFLQTADAKGLDARCVDSLTDVPAFTSFNGWEP	not soluble
MRVLGIETSCDETGIAVYDDKAGLLANQLYSQVKLHADYGGVVPELASRDHVRKTVPLIQAALKEANLSAKDIDAVAYTAGPGLVGALLVGATIGRALAFAWGVPAVPVHHMEGHLLAPMLEENAPEFPFVALLVSGGHTQLISVTGIGEYLLLGESVDDAAGEAFDKTAKLLGLDYPGGPMLSRMAQQGTVGRFTFPRPMTDRPGLDFSFSGLKTFAANTIRANGDDDQTRADIARAFEDAVVDTLAIKSKRALDQTGFKRLVIAGGVSANQTLRLKLADMMQKRGGEVFYARPEFCTDNGAMIAYAGMVRLRSNLNSELSVSVRPRWPLSELPKV	not soluble
STFRERLLHKNLQEHFSNQDLVFLLLTPSIITESCSTHRLEHSLYKPQKGLFHRVPLVVANLGMSEQLGYKTVSGSCMSTGFSRAVQTHSSKFFEEDGSLKEVHKINEMYASLQEELKSICKKVEDSEQAVDKLVKDVNRLKREIEKRRGAQIQAAREKNIQKDPQENIFLCQALRTFFPNSEFLHSCVMSLKNRHVSKSSCNYNHHLDVVDNLTLMVEHTDIPEASPASTPQIIKHKALDLDDRWQFKRSRLLDTQDKRSKADTGSSNQDKASKMSSPETDEEIEKMKGFGEYSRSPTF	not soluble
MQTSIDPVFAGWDGSVAQARQLQQQLAQRVALRDEVSAAPALLAGFDVGFEDDGQTTRAAAVLLDAQTLLPLETHVARVPTSMPYVPGLLSFRELPALLRALALLARTPDLVFIDGQGIAHPRRFGIAAHFGVVTGLPSIGVAKQRLAGTFIEPGGERGDHSPILLAGAQIGWALRSKPRCNPLIVSPGHRVSMQGALDWTLRTLRAYRLPEPTRLADRLASRRGEIELQTQPTLLLEHHHHHH	not soluble
MFIPVIMAGGSGSRLWPLSRSAFPKQFLSLDSSSQHTMLQATIERLQGLPIAEPIVISNEDHRFIVAEQIRRYGKKSRIILEPAGRNTAPAIALAAFTAIEQEDDPVLLVLAADHFVKNKSAFQAAISQAAQQAEAGKLATFGIVPTTPETGYGYIHRGEEVTQGTYEINSFVEKPQLNIAEQYLASGEYYWNSGCFMFKASVFLNELKQHSPEIYRQCELAMQGLSHDYDFIRVGVEEFLKCPDDSIDYAVMEHTKLGVVVSMDAGWSDVGSWSALWEVSDKDADGNVCQGDAILSGTSNCYIYAPNKLVAAVGLKDIVVVETKDAVLVADKNQVQEVKKIVEHLKAENRAEYREHRERYRPWGKSDAIDKGERYKVNRITVEPGKKQSLQMHYHRAEHWVVVSGTAKVTCEGNVKVITENQSLYIPIGTNHMIENPGKIPLELIEIQSGSYLNEDDVVRFEDK	not soluble
KRRAALNLRIFATEGAMMLGVTLSRLEGRSFIERSPGRRPFFKPGPLSPRLSRAFVNLSRLQRGGSFADPFCGTGGFAIEACLLGASRIACGDLDWAMVRGGPLNLSRYCPPGIWFYSAWNAAKLPLSSNSVDSIATDPPYGRSTTTGRMGYLSLTRAFLNTAVEVLRSEGWIVYAGPTRMSPETLAEDAGLRVVKVIEMFVHGSLTRSIVVARFG	not soluble
MKQSIRHNKIIELVNQLGYVSTEELVAQLAVSSQTIRRDLNELAEKNLLRRHHGGAGMPSNNENSDYSERKKFFSAQKNIIAQQVAEMIPNGSSLFLDIGTTSEAVAYALLSHQHLRIVTNNLNAAHILMQKDDFQITIAGGDLRADGGIIGEATVNFISEFRLDFGILGISAIDQDGSMLDYDYHEVQVKRALMQSSRQVILVTDHSKFNRRAIVRLGNISEVNYLFTDLPLPLELQQYLAPTNVTVYICNNLEHHHHHH	soluble
MGSDKIHHHHHHMSEESIIVVGGGIAGLTGAALLSKEGYQVTLVEAHSQLGGCAGTFKRGSYTFDVGATQVAGLERGGIHHRLFNYLDIPLPDAKILDPGCSVTLGDGSRPINLWHDPLRWQKERQEQFPGSEIFWSLCSKIHESNWEFVERDPILPVRNFWDLSQLIRAIRPSNLLTGFLSKLTIADLLTITGCHKDRRLRSFLDLQLKLYSQEPASRTAALYGATVLQMAQSPRGLWHLHGSMQILSDLLKDSFLRDGGSLLIGHRVTKIIRKENSNVFDVKVLDRRKNLLQMKASDIVFSLPPQSLLDLIPIDGGLSTTYRESIKKLPKPSGAVVFYGALRRVDLPVDCPGHIQVFDEHFGSLFISISLENDQRAPIGMATLIASVFVDIDQWSNLDSQAYTRKKSVVSKQIRAILDHKFDLLETSWDHQELSTPRSFERWTGRPSGIVGGLGQHPDQFGPFGLSSRTPLKGLWLCGDSIYPGEGTAGVSQSALMVVRQLLESKGRHLNIPVFN	not soluble
MSKIETPVMTSLQTTAEKMMKDLNVPGAAVAVIKDGEVIISEGFGYRNIETKEAVTPNTRFAIGSSTKAFGTLSLSLLAQQKKFNWDTPIQSYIPNFTLSELLASSQVTGRDLASHRTGVSRHEALWYSSSLSRKDLVEKIKHLPLDAPFRTAFLYNNLMYATISYIVENITNQTWEQYTTEHILEPLNMRHTNFSVNDSQTTDDYALPYIENDGEIKAVPFRNIDTVGAAGCINSTIEDMANWVLLHLNEGKFGDHELISSELLQQMYTPHNSIPDQPVLSLPESPLNSYGLGWFISAYRGKKVIHHGGNIDGFSALVSFIPTENIGLVILTNAGGTLLPTYLANQIYDELLELESIDWHKRAVEDTKKMKEMMKEATESLPEQIKGTTPSHKLEDYTGTFEHPAYGTLQVYKRDDSLYVQFMEMDIQLGHHHYDIFSAKVDLFQMKMSLLFAYEMNVSGEFPSLQLHVPATLSTQPLTFKKIK	not soluble
CEVDALKGTNESLERQMREMEENFAVEAANYQDTIGRLQDEIQNMKEEMARHLREYQDLLNVKMALDIEIATYRKLLEGEESRI	soluble
MATESALIKVHVKSPSNKYDVEIAADASVSELKDKVLVFVPTANKEQVCIIYTGKILKDEETLTQHKIADGHTVHLVIRNQARPTPAPAAATPTASSAPSSNPTPSSQPNPTNNPFAAMGGMGSPADILNNPDAMRSVMDNPITQQLLGNPEFMRTIIQSNPQFQALIERNPEVGHILNDPNVMRQTMEMIRNPNMFQEMMRNHDQAIRNLQGIPGGEAALERLYNDVQEPLLNSATNSLSGNPFASLRGDQSSEPRVDRAGQENNEALPNPWASNANQATNNQSNNRSADFNSLLDSPGISSLMEQMMSNPSMQASMFSPEVINSIRQNMSNNPGLIDSIVGQIPSARDNPQISEGIRRSFPQMLNMMSDPSVMEAMRNPRVSEAFRQIQEGFSTLRREAPQLLNLFQAGAMGGGAFGSDANASSAGANSANGLADLFNSMNMGGGRPSSTAAPVNPEQTYASQLEQLQSMGFSDRARNVAALTATFGDLNAAVERLLNSP	not soluble
